Reference: paper PMC10406935

Assays:
[1] = target: MslH (lasso peptide epimerase), N-terminally His6-tagged, wild type (Streptomyces griseorubiginosus); test: SEC; gel-filtration of purified recombinant His6-MslH; apparent molecular weight against the 49.4 kDa calculated for the monomer
[2] = target: MslH (lasso peptide epimerase), N-terminally His6-tagged, wild type (Streptomyces griseorubiginosus); test: crystal structure; MslH:apo, His6-MslH 5 mg/ml, sitting-drop vapor diffusion, 20 °C; space group I422, one monomer in the asymmetric unit; 2.30 Å
[3] = target: MslH (lasso peptide epimerase), N-terminally His6-tagged, wild type (Streptomyces griseorubiginosus); test: crystal structure; co-crystallisation: purified His6-MslA analogue-MslB1 complex mixed with His6-MslH (5 mg/ml) at 1.2:1 mole ratio 16 h before the precipitant; sitting drops, 20 °C; one monomer in the asymmetric unit

stoichiometry N [1]: 8
stoichiometry N [2]: 8
stoichiometry N [3]: 8
Substance: MslH (lasso peptide epimerase), N-terminally His6-tagged, wild type (enzyme)
